Laboratory results published in PMC5704290.

System: NCCC(=O)O
Assay: purified protein
Settings: pH 7.8; 25.0 °C

(Mycobacterium tuberculosis H37Rv)
Km: 610 ± 10 µM | kcat/Km: 2600 M⁻¹ s⁻¹
